From publication PMC8339797 (2021)
Numbered stars: 1 amine (or outer) side, 2 acyl side, 3 side chain; on linkers, the order of the positions; unused ones are H or OH. Square brackets hold non-standard residues; d marks the D form. Side chains are listed from the residue outwards. dextran = polysaccharide of α-(1–6)-linked D-glucose units with low branching; Propanoyl(3-triazol-4-yl) = O=C(CCc1cn([*:1])nn1)[*:2]

Biological target: T1, RGD-decorated Fc-dextran-MMAE construct 20 (cyclo[RGDfK] multimer) (also: multivalent on dextran conjugated to aglycosylated human Fc N297A with MMAE)
T1 chain: cyclo(RGD[dF]K([Propanoyl(3-triazol-4-yl)-dextran]))
Test: flow cytometry cell binding (apparent KD)

B1: integrin alpha-v beta-3 (on U87MG cells) (protein)
chain 1: FNLDVDSPAEYSGPEGSYFGFAVDFFVPSASSRMFLLVGAPKANTTQPGIVEGGQVLKCDWSSTRRCQPIEFDATGNRDYAKDDPLEFKSHQWFGASVRSKQDKILACAPLYHWRTEMKQEREPVGTCFLQDGTKTVEYAPCRSQDIDADGQGFCQGGFSIDFTKADRVLLGGPGSFYWQGQLISDQVAEIVSKYDPNVYSIKYNNQLATRTAQAIFDDSYLGYSVAVGDFNGDGIDDFVSGVPRAARTLGMVYIYDGKNMSSLYNFTGEQMAAYFGFSVAATDINGDDYADVFIGAPLFMDRGSDGKLQEVGQVSVSLQRASGDFQTTKLNGFEVFARFGSAIAPLGDLDQDGFNDIAIAAPYGGEDKKGIVYIFNGRSTGLNAVPSQILEGQWAARSMPPSFGYSMKGATDIDKNGYPDLIVGAFGVDRAILYRARPVITVNAGLEVYPSILNQDNKTCSLPGTALKVSCFNVRFCLKADGKGVLPRKLNFQVELLLDKLKQKGAIRRALFLYSRSPSHSKNMTISRGGLMQCEELIAYLRDESEFRDKLTPITIFMEYRLDYRTAADTTGLQPILNQFTPANISRQAHILLDCGEDNVCKPKLEVSVDSDQKKIYIGDDNPLTLIVKAQNQGEGAYEAELIVSIPLQADFIGVVRNNEALARLSCAFKTENQTRQVVCDLGNPMKAGTQLLAGLRFSVHQQSEMDTSVKFDLQIQSSNLFDKVSPVVSHKVDLAVLAAVEIRGVSSPDHVFLPIPNWEHKENPETEEDVGPVVQHIYELRNNGPSSFSKAMLHLQWPYKYNNNTLLYILHYDIDGPMNCTSDMEINPLRIKISSLQTTEKNDTVAGQGERDHLITKRDLALSEGDIHTLGCGVAQCLKIVCQVGRLDRGKSAILYVKSLLWTETFMNKENQNHSYSLKSSASFNVIEFPYKNLPIEDITNSTLVTTNVTWGIQPAPMPV
chain 2: GPNICTTRGVSSCQQCLAVSPMCAWCSDEALPLGSPRCDLKENLLKDNCAPESIEFPVSEARVLEDRPLSDKGSGDSSQVTQVSPQRIALRLRPDDSKNFSIQVRQVEDYPVDIYYLMDLSYSMKDDLWSIQNLGTKLATQMRKLTSNLRIGFGAFVDKPVSPYMYISPPEALENPCYDMKTTCLPMFGYKHVLTLTDQVTRFNEEVKKQSVSRNRDAPEGGFDAIMQATVCDEKIGWRNDASHLLVFTTDAKTHIALDGRLAGIVQPNDGQCHVGSDNHYSASTTMDYPSLGLMTEKLSQKNINLIFAVTENVVNLYQNYSELIPGTTVGVLSMDSSNVLQLIVDAYGKIRSKVELEVRDLPEELSLSFNATCLNNEVIPGLKSCMGLKIGDTVSFSIEAKVRGCPQEKEKSFTIKPVGFKDSLIVQVTFDCDCACQAQAEPNSHRCNNGNGTFECGVCRCGPGWLGSQCECSEEDYRPSQQDECSPREGQPVCSQRGECLCGQCVCHSSDFGKITGKYCECDDFSCVRYKGEMCSGHGQCSCGDCLCDSDWTGYYCNCTTRTDTCMSSNGLLCSGRGKCECGSCVCIQPGSYGDTCEKCPTCPDACTFKKECVECKKFDRGALHDENTCNRYCRDEIESVKELKDTGKDAVNCTYKNEDDCVVRFQYYEDSSGKSILYVVEEPECPKGPD
  Kd: 33 nM
